Paper PMC10578477, “Biochemical and genetic dissection of the RNA-binding surface of the FinO domain of Escherichia coli ProQ”

Columns and labels:
[1] = biological target: T1, ProQ NTD R62A R62A (Escherichia coli) (UniProt P45577); test: EMSA; settings: EMSA: 25 mM Tris pH 7.5, 150 mM NaCl, 5% glycerol, 1 mM MgCl2, 1 nM 32P-RNA, 30 min RT; microplates pretreated with 0.0025% BSA; 6% gel in 0.5x TBE at 4 C
T1 sequence: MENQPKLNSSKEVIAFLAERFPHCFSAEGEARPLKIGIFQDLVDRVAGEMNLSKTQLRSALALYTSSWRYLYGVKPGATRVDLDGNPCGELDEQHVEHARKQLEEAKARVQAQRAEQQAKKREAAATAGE

[2] = biological target: T2, ProQ NTD K54A K54A (Escherichia coli) (UniProt P45577); test: EMSA; settings: EMSA: 25 mM Tris pH 7.5, 150 mM NaCl, 5% glycerol, 1 mM MgCl2, 1 nM 32P-RNA, 30 min RT; microplates pretreated with 0.0025% BSA; 6% gel in 0.5x TBE at 4 C
T2 sequence: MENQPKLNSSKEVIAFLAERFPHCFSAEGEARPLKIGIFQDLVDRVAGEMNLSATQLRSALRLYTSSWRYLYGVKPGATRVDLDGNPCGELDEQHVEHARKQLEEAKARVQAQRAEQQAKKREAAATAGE

[3] = biological target: T3, ProQ NTD T65A T65A (Escherichia coli) (UniProt P45577); test: EMSA; settings: EMSA: 25 mM Tris pH 7.5, 150 mM NaCl, 5% glycerol, 1 mM MgCl2, 1 nM 32P-RNA, 30 min RT; microplates pretreated with 0.0025% BSA; 6% gel in 0.5x TBE at 4 C
T3 sequence: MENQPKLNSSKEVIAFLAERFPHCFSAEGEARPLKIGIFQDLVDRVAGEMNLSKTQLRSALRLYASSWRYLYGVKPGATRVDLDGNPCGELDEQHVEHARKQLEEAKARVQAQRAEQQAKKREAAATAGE

[4] = biological target: T4, ProQ NTD D41A D41A (Escherichia coli) (UniProt P45577); test: EMSA; settings: EMSA: 25 mM Tris pH 7.5, 150 mM NaCl, 5% glycerol, 1 mM MgCl2, 1 nM 32P-RNA, 30 min RT; microplates pretreated with 0.0025% BSA; 6% gel in 0.5x TBE at 4 C
T4 sequence: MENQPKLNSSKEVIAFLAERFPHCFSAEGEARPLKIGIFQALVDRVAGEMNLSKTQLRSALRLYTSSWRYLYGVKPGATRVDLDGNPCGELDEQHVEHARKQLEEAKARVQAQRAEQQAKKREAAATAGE

[5] = biological target: T5, ProQ NTD R58A R58A (Escherichia coli) (UniProt P45577); test: EMSA; settings: EMSA: 25 mM Tris pH 7.5, 150 mM NaCl, 5% glycerol, 1 mM MgCl2, 1 nM 32P-RNA, 30 min RT; microplates pretreated with 0.0025% BSA; 6% gel in 0.5x TBE at 4 C
T5 sequence: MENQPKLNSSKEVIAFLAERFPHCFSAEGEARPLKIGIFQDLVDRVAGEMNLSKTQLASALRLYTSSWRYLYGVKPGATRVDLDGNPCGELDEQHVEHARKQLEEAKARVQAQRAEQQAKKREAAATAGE

[6] = biological target: T6, ProQ NTD R32A R32A (Escherichia coli) (UniProt P45577); test: EMSA; settings: EMSA: 25 mM Tris pH 7.5, 150 mM NaCl, 5% glycerol, 1 mM MgCl2, 1 nM 32P-RNA, 30 min RT; microplates pretreated with 0.0025% BSA; 6% gel in 0.5x TBE at 4 C
T6 sequence: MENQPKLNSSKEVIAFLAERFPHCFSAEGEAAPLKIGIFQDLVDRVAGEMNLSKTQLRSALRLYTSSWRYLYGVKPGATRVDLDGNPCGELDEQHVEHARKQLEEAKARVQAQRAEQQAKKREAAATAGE

[7] = biological target: T7, ProQ NTD Y70F Y70F (Escherichia coli) (UniProt P45577); test: EMSA; settings: EMSA: 25 mM Tris pH 7.5, 150 mM NaCl, 5% glycerol, 1 mM MgCl2, 1 nM 32P-RNA, 30 min RT; microplates pretreated with 0.0025% BSA; 6% gel in 0.5x TBE at 4 C
T7 sequence: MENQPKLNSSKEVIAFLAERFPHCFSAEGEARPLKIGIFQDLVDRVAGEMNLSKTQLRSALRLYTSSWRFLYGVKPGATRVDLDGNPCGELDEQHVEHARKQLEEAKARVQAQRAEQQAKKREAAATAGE

[8] = biological target: T8, ProQ NTD K35A K35A (Escherichia coli) (UniProt P45577); test: EMSA; settings: EMSA: 25 mM Tris pH 7.5, 150 mM NaCl, 5% glycerol, 1 mM MgCl2, 1 nM 32P-RNA, 30 min RT; microplates pretreated with 0.0025% BSA; 6% gel in 0.5x TBE at 4 C
T8 sequence: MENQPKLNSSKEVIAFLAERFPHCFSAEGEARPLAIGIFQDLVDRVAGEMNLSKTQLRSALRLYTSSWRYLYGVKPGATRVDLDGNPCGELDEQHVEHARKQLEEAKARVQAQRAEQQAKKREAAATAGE

ProQ NTD K35A [9] = biological target: T9, ProQ NTD K35A (Escherichia coli, UniProt P45577 1-130, K35A); test: EMSA; EMSA: 25 mM Tris pH 7.5, 150 mM NaCl, 5% glycerol, 1 mM MgCl2, 1 nM 32P-RNA, 30 min RT; microplates pretreated with 0.0025% BSA; 6% gel in 0.5x TBE at 4 C; settings: protein: recombinant, tags: His6-TEV removed, N-terminal Ser remains, label: 5'-32P
T9 sequence: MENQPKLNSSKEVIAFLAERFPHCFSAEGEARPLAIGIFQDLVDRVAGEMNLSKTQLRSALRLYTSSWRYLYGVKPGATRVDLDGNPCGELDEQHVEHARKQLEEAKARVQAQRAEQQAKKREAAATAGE

ProQ NTD R69A [10] = biological target: T10, ProQ NTD R69A (Escherichia coli, UniProt P45577 1-130, R69A); test: as above; settings: protein: recombinant; tags: His6-TEV removed, N-terminal Ser remains; label: 5'-32P; hairpin, 6 U tail (2 predicted single-stranded)
T10 sequence: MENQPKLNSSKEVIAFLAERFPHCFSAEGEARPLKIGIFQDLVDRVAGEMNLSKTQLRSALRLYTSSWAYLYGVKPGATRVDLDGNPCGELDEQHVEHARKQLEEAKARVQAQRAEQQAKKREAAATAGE

ProQ NTD R69A [11] = biological target: T10, ProQ NTD R69A; test: EMSA; affinity not decreased vs R69A with cspE-3'; EMSA: 25 mM Tris pH 7.5, 150 mM NaCl, 5% glycerol, 1 mM MgCl2, 1 nM 32P-RNA, 30 min RT; microplates pretreated with 0.0025% BSA; 6% gel in 0.5x TBE at 4 C; settings: protein: recombinant; tags: His6-TEV removed, N-terminal Ser remains; label: 5'-32P; hairpin with 5' and 3' single-stranded regions
ProQ NTD K35A [12] = biological target: T9, ProQ NTD K35A; test: EMSA; EMSA: 25 mM Tris pH 7.5, 150 mM NaCl, 5% glycerol, 1 mM MgCl2, 1 nM 32P-RNA, 30 min RT; microplates pretreated with 0.0025% BSA; 6% gel in 0.5x TBE at 4 C; settings: protein: recombinant; tags: His6-TEV removed, N-terminal Ser remains; label: 5'-32P; hairpin, no 5' single strand
ProQ NTD R69A [13] = biological target: T10, ProQ NTD R69A; test: as above; settings: protein: recombinant; tags: His6-TEV removed, N-terminal Ser remains; label: 5'-32P; hairpin, no 5' single strand
ProQ NTD R80K = biological target: T11, ProQ NTD R80K (Escherichia coli, UniProt P45577 1-130, R80K); test: as above; settings: protein: recombinant; tags: His6-TEV removed, N-terminal Ser remains; label: 5'-32P; terminator hairpin, 8 U 3' tail
T11 sequence: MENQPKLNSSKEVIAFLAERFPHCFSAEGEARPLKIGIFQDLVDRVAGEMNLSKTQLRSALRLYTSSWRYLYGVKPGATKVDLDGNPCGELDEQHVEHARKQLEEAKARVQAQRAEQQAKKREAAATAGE

ProQ NTD R80A = biological target: T12, ProQ NTD R80A (Escherichia coli, UniProt P45577 1-130, R80A); test: as above; settings: protein: recombinant; tags: His6-TEV removed, N-terminal Ser remains; label: 5'-32P; terminator hairpin, 8 U 3' tail
T12 sequence: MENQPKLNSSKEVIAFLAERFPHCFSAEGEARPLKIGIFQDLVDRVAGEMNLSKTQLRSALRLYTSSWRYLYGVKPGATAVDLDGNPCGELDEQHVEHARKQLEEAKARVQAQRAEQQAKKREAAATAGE

ProQ NTD K35A [14] = biological target: T9, ProQ NTD K35A; test: EMSA; max fraction bound similar to WT; EMSA: 25 mM Tris pH 7.5, 150 mM NaCl, 5% glycerol, 1 mM MgCl2, 1 nM 32P-RNA, 30 min RT; microplates pretreated with 0.0025% BSA; 6% gel in 0.5x TBE at 4 C; settings: protein: recombinant; tags: His6-TEV removed, N-terminal Ser remains; label: 5'-32P; terminator hairpin, 8 U 3' tail
ProQ NTD R62A = biological target: T13, ProQ NTD R62A (Escherichia coli, UniProt P45577 1-130, R62A); test: EMSA; max fraction bound just above 40%; EMSA: 25 mM Tris pH 7.5, 150 mM NaCl, 5% glycerol, 1 mM MgCl2, 1 nM 32P-RNA, 30 min RT; microplates pretreated with 0.0025% BSA; 6% gel in 0.5x TBE at 4 C; settings: protein: recombinant; tags: His6-TEV removed, N-terminal Ser remains; label: 5'-32P; terminator hairpin, 8 U 3' tail
T13 sequence: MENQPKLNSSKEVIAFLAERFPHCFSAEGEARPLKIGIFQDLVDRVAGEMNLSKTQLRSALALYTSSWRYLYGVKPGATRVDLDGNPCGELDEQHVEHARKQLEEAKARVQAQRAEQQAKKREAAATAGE

ProQ NTD D41A = biological target: T14, ProQ NTD D41A (Escherichia coli, UniProt P45577 1-130, D41A); test: EMSA; EMSA: 25 mM Tris pH 7.5, 150 mM NaCl, 5% glycerol, 1 mM MgCl2, 1 nM 32P-RNA, 30 min RT; microplates pretreated with 0.0025% BSA; 6% gel in 0.5x TBE at 4 C; settings: protein: recombinant; tags: His6-TEV removed, N-terminal Ser remains; label: 5'-32P; terminator hairpin, 8 U 3' tail
T14 sequence: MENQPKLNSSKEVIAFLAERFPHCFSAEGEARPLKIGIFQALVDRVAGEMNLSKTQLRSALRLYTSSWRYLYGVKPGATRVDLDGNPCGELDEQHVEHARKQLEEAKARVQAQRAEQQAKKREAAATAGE

ProQ NTD T65A = biological target: T15, ProQ NTD T65A (Escherichia coli, UniProt P45577 1-130, T65A); test: as above; settings: protein: recombinant; tags: His6-TEV removed, N-terminal Ser remains; label: 5'-32P; terminator hairpin, 8 U 3' tail
T15 sequence: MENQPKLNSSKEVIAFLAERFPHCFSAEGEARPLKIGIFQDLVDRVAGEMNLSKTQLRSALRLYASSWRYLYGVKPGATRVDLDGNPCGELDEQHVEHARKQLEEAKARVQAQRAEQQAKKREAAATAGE

ProQ NTD R69A [15] = biological target: T10, ProQ NTD R69A; test: EMSA; max fraction bound 88%; EMSA: 25 mM Tris pH 7.5, 150 mM NaCl, 5% glycerol, 1 mM MgCl2, 1 nM 32P-RNA, 30 min RT; microplates pretreated with 0.0025% BSA; 6% gel in 0.5x TBE at 4 C; settings: protein: recombinant; tags: His6-TEV removed, N-terminal Ser remains; label: 5'-32P; terminator hairpin, 8 U 3' tail

Molecule: gapA-3'
- binding signal [1]: < 20 % max bound
- binding signal [2]: < 20 % max bound
- binding signal (fold weaker Kd than WT) [3]: 1
- binding signal (fold weaker Kd than WT) [4]: 1
- Kd [5]: > 1000 nM
- binding signal (fold weaker Kd than WT) [6]: 1

Molecule: malM-3'
- binding signal [7]: < 20 % max bound
- binding signal [1]: 25 % max bound
- binding signal [2]: 30 % max bound
- binding signal (fold weaker Kd than WT) [3]: 2
- binding signal (fold weaker Kd than WT) [4]: 3
- Kd [5]: > 1000 nM
- binding signal (fold weaker Kd than WT) [6]: 1
- binding signal [8]: 70 % max bound

Molecule: GGAAUUCGGAAGGCGCUUAAUCAGCGCCUUUUUU (structured_RNA) [cspE-mini-3'-6U]
- binding signal (ProQ NTD K35A [9]; hairpin, 6 U tail (2 predicted single-stranded)): ~1.4 fold weaker Kd than K35A with cspE-mini
- binding signal (ProQ NTD R69A [10]): ~2.4 fold weaker Kd than R69A with cspE-mini

Molecule: GGAAUUCGGAAGGCGCUUAAUCAGCGCCUUUUUUUU (structured_RNA) [cspE-mini]
- binding result (ProQ NTD R69A [11]): binds
- binding signal (ProQ NTD K35A [9]; hairpin with 5' and 3' single-stranded regions): ~2 fold weaker Kd than K35A with cspE-3'

Molecule: GGAAGGCGCUUAAUCAGCGCCUUUUUUUU (structured_RNA) [cspE-mini-5'-blunt]
- binding result (ProQ NTD K35A [12]): no binding
- binding result (ProQ NTD R69A [13]): no binding

B1: cspE-3' (structured_RNA)
RNA: GUAAGAUACGUCAGCAAGAAUUCAAAACCCGCUUAAUCAGCGGGUUUUUUUU
- binding result (ProQ NTD R80K): no binding
- binding result (ProQ NTD R80A): no binding
- binding result (ProQ NTD K35A [14]): binds
- binding signal (ProQ NTD R62A): ~4 fold weaker Kd than WT
- binding signal (ProQ NTD D41A): ~3 fold weaker Kd than WT
- binding signal (ProQ NTD T65A): ~4 fold weaker Kd than WT
- Kd (ProQ NTD R69A [15]): 20 nM
